Data: patent publication US20040167074A1, “Therapeutic applications of mFLINT polypeptides” (priority 1998, published 2004)
Values joined by “and” are separate entries in the source; they are usually repeats but may differ in a detail not shown here. Identical values can stand only once.

How the values were obtained:
[1] = target: FasL expressed by anti-CD3-activated Jurkat cells
[2] = target: FasL expressed by anti-CD3-activated Jurkat cells; remark: listed apart in the source
[3] = target: soluble Fas L (recombinant FasL)
[4] = tested on: Jurkat cells; experiment: anti-CD3 induced Jurkat apoptosis (Annexin V/PI, FACS); format: cell-based; settings: Example 12; Jurkat + antiCD3 + 10 μM DEVD-cmk
Description: Non-tissue treated 24 well plates (Decton Dickinson, Mansfield, Mass.) were coated with 0.5 ml of 1 ug/ml anti-CD3 (Farmingen) in PBS for 90 min at 37° C. The plate was washed once with PBS.
Cells were incubated overnight at 37° C. incubator and cells were then stained by Annexin V and PI staining. Apotosis was analyzed by flow cytometer (FACS). Cell apoptosis was indicated by positive staining with Annexin V.

[5] = tested on: LIGHT; experiment: LIGHT cell surface binding assay by flow cytometry
Description: To confirm the dot blot binding between LIGHT and mFLINT, 293 cells were transiently transfected with LIGHT expression construct overnight. On the next day, cells were detached and incubated with mFLINT-Flag on ice. […] As a control we used vector transfected cells. To make sure that the binding was specific, a competition assay with 10 fold access of untagged mFLINT was performed.
More particularly, 6 well dishes of cells were transfected as above. Both vector and m-LIGHT expressing cells were provided. Cells were detached from the plates by vigorous pipetting with a P100 Pipettor. Then, in PBS/BSA, 0.1%, cells were exposed to one of the following combinations, set forth in a-d.
a. GST/flag, mFLINT/flag, or HVEM at 20 nM;
b. FLINT/flag at 20 nM+GST/flag or mFLINT or HVEM at 200 nM;
c. FLINT/flag at 20 nM+HVEM+anti-human FAS ligand at 200 n-M;
d. anti-human FAS ligand-biotin at 1 μg/ml
Cells were incubated on ice for 30 minutes and washed with PBS/BSA, 0.1%. Cells then were exposed either to anti-human IgG-biotin, 1 μg/ml (for detection of HVEM), or to M2-biotin, 2 μg/ml (for detection of flag conjugates). Cells were incubated on ice for 30 minutes and washed with PBS/BSA, 0.1%. Thereafter, cells were exposed to streptavidin Alexa 488 (SIGMA) at a 1:1000 dilution. Again, cells were incubated on ice for 30 minutes and washed with PBS/BSA, 0.1 1%. Cells were analyzed using a FACSORT flow cytometer (Decton Dickinson) to determine binding.

[6] = tested on: Jurkat cells; experiment: Recombinant FasL induced Jurkat cell apoptosis (Annexin V/PI, FACS); format: cell-based; settings: Jurkat + inducer alone 200 ng/ml, overnight
Description: One milliliter of 1×10^6 cell/ml was added into each well of 24 well tissue culture plate and treated with following reagents: soluble Fas L (200 ng), Fas L plus 1 ug mFLINT, Fas L plus 1 ug OPG2-Fc, Trail (200 ng), Trail plus 1 ug mFLINT. Cells were incubated overnight at 37° C. and then stained with Annexin V and PI.

[7] = target: T1, hFasLigand (Flag-tagged) (Homo sapiens, UniProt P48023); experiment: ELISA: FasLigand binding to adsorbed FLINT and Fas; settings: 100 ng receptor adsorbed
T1 sequence (P48023 103-281 limits assumed): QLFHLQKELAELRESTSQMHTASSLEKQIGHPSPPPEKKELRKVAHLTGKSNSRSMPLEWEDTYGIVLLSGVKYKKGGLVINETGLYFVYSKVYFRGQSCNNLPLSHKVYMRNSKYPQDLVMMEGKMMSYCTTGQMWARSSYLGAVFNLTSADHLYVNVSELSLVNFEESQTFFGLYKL
Description: FLINT and Fas (100 ng of each) were adsorbed on to an ELISA plate. hFasLigand (Flag-tagged) was added at different concentrations to a maximum concentration of 300 ng down to 0.1 ng on TBST plus a 0.1% solution containing 1 microgram/ml of M2 Abs. After washing of the plate, anti-mouse-Abs-HRP (1:3000 dilution, Bio-Rad) was added to the wells. After washings, visualization enzymatic reaction using ABTS as a substrate was performed.

[8] = target: T2, FasL (Homo sapiens, UniProt P48023); experiment: BiaCore real-time biomolecular interaction analysis (surface plasmon resonance); format: binding; settings: immobilized FasL (monomer bound), analyte in solution
T2 construct: purchased Kamiya Biomedical Company
T2 sequence (P48023 130-281 limits assumed): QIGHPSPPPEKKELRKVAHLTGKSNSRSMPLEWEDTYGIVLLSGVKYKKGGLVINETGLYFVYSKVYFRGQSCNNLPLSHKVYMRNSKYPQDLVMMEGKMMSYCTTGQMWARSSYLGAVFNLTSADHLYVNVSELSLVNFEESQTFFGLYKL
From the text: FLINT-Fas L binding may be confirmed and specifics of binding determined (e.g., kinetics, specificity, affinity, cooperativity, relative binding pattern, concentration) using real-time biomolecular interaction analysis. This technology confers the ability to study biomolecular interactions in real time, without labeling any of the interactants. In particular, it takes advantage of the optical phenomenon surface plasmon resonance, and detection depends on changes in the mass concentration of macromolecules at the biospecific interface. Interactions are followed in real time, so that kinetic information is readily derived. In many cases, investigations can be performed without prior purification of components.
Measurements are accomplished using a BiaCore 2000 instrument. The instrument, accompanying chips, immobilization and maintenance kits and buffers are obtained from Biacore AB, Rapsgatan 7, S-754 50 Uppsala, Sweden. FasL is obtained from Kamiya Biomedical Company, 910 Industry Drive, Seattle, Wash. 98188, Guanidine Isothiocyanate Solution from GibcoBRL, and mFLINT is prepared as in Examples 8 and 9.
Experiments using immobilized FasL loaded with a solution containing mFLINT. […] This is explained by the fact that FasL is a trimer, yet here FasL monomer was bound. Further experiments utilized bound FLINT with FasL in solution, allowing for trimer formation. […] This observations indicate that FLINT should effectively compete with Fas for FasL binding, which likely explains the therapeutic benefit observed in experiments detailed below.

[9] = tested on: Mouse T cell hybridoma cells (LTT cells); experiment: Murine FasL-mediated apoptosis of LTT cells (Annexin V assay); format: cell-based; settings: test agent 1 μg/ml
Description: (§1) LTT,2,14,11 cells (LTT cells), see Glasebrook, Eur.J.Immunol. 17: 1561-65 (1987), were used in this Annexin V assay. On the first day, a 96 well plate was coated with anti-CD3 (2C11) at a serial dilutions. On the second day, 100,000 LTT cells were added, in 50 μl of medium per well, along with 50 μl of medium to the control wells and 50 μl of medium containing:
Group 1. solubleFas (sFas)(FasFc, mouse), with a final concentration of 1 μg/ml
Group 2. mFLINT (human), with a final concentration of 1 ug/ml
Group 3. anti-FasL (mouse), with a final concentration of 1 ug/ml.
These then were incubated overnight, at 37° C., in 5% CO2;
On the following day (Day 3), the cells were collected from each well, washed and labeled with Annexin V and PI, following Flow cytometry analysis.

[10] = tested on: Mouse T cell hybridoma cells (LTT cells); experiment: Murine FasL-mediated apoptosis of LTT cells (MTS cytotoxicity assay); format: cell-based; settings: test agent 1 μg/ml
Description: as §1
The same steps as in Example 16 were followed on Day 1 and Day 2. On Day 3 20 ul of MTS solution (Promega) was added to the cells which were then incubated at 37° C. for 2 hours. Using a plate reader, the absorbances at 490 nm wavelength were collected.

## OPG2-Fc (Fc fusion)
[1]
  apoptosis of Jurkat cells, positive staining with Annexin V (FACS): 45.8
[2]
  apoptosis of Jurkat cells: 26.2
[3]
  apoptosis of Jurkat cells, Annexin V and PI (FACS): 70.6

## DEVD-cmk [DEVDcmk, reference compound]
[4]
  Cell apoptosis (positive staining with Annexin V): 30.80

B1: mFLINT-Flag: FLINT with the Flag sequence attached at the C-terminal end: [FLINT]-DYKDDDDK (protein)
chain: VAETPTYPWRDAETGERLVCAQCPPGTFVQRPCRRDSPTTCGPCPPRHYTQFWNYLERCRYCNVLCGEREEEARACHATHNRACRCRTGFFAHAGFCLEHASCPPGAGVIAPGTPSQNTQCQPCPPGTFSASSSSSEQCQPHRNCTALGLALNVPGSSSHDTLCTSCTGFPLSTRVPGAEECERAVIDFVAFQDISIKRLQRLLQALEAPEGWGPTPRAGRAALQLKLRRRLTELLGAQDGALLVRLLQALRVARMPGLERSVRERFLPVHDYKDDDDK
[5]; LIGHT-transfected 293 cells
  cell surface binding (flow cytometry peak shift): peaks shifted only when LIGHT expressing cells were stained with mFLINT-Flag
[5]; vector transfected control cells
  cell surface binding (flow cytometry peak shift): no shift in the control cells

B2: TRAIL: TNF ligand TRAIL (RnD Systems) (protein, UniProt P50591 1-281, looked up)
Tumor necrosis factor ligand …: MAMMEVQGGPSLGQTCVLIVIFTVLLQSLCVAVTYVYFTNELKQMQDKYSKSGIACFLKEDDSYWDPNDEESMNSPCWQVKWQLRQLVRKMILRTSEETISTVQEKQQNISPLVRERGPQRVAAHITGTRGRSNTLSSPNSKNEKALGRKINSWESSRSGHSFLSNLHLRNGELVIHEKGFYYIYSQTYFRFQEEIKENTKNDKQMVQYIYKYTSYPDPILLMKSARNSCWSKDAEYGLYSIYQGGIFELKENDRIFVSVTNEHLIDMDHEASFFGAFLVG
[6]
  Cell apoptosis (Annexin V and PI, FACS): 17.47 and 17.43

B3: Fas: Fas receptor protein adsorbed on ELISA plate or compared in BiaCore (protein, UniProt P25446 22-169, looked up)
extracellular domain: QGTNSISESLKLRRRVRETDKNCSEGLYQGGPFCCQPCQPGKKKVEDCKMNGGTPTCAPCTEGKEYMDKNHYADKCRRCTLCDEEHGLEVETNCTLTQNTKCKCKPDFYCDSPGCEHCVRCASCEHGTLEPCTATSNTNCRKQSPRNR
modifications: extracellular domain
notes: Fas receptor protein adsorbed on ELISA plate or compared in BiaCore
[7]; FasL 0.1 ng
  OD, 405 nM: 0
[7]; FasL 0.5 ng
  OD, 405 nM: 0
[7]; FasL 1.0 ng
  OD, 405 nM: 0
[7]; FasL 5.0 ng
  OD, 405 nM: .01
[7]; FasL 10 ng
  OD, 405 nM: .03
[7]; FasL 50 ng
  OD, 405 nM: .045
[7]; FasL 100 ng
  OD, 405 nM: .18
[8]
  Kd: 162 nM

B4: SFas: solubleFas (sFas)(FasFc, mouse) (protein)
chain: B3 extracellular domain
[9]; Anti CD3 0
  % Annexin V Positive: 23.14%
[9]; Anti CD3 0.11
  % Annexin V Positive: 41.08%
[9]; Anti CD3 0.33
  % Annexin V Positive: 47.28%
[9]; Anti CD3 1
  % Annexin V Positive: 56.66%
[10]; Anti CD3 conc. 0 μg/ml
  MTS absorbance at 490 nm: 1.774
[10]; Anti CD3 conc. 0.0014 μg/ml
  MTS absorbance at 490 nm: 1.968
[10]; Anti CD3 conc. 0.004 μg/ml
  MTS absorbance at 490 nm: 1.929
[10]; Anti CD3 conc. 0.012 μg/ml
  MTS absorbance at 490 nm: 1.779
[10]; Anti CD3 conc. 0.037 μg/ml
  MTS absorbance at 490 nm: 1.777
[10]; Anti CD3 conc. 0.11 μg/ml
  MTS absorbance at 490 nm: 1.638
[10]; Anti CD3 conc. 0.33 μg/ml
  MTS absorbance at 490 nm: 1.624
[10]; Anti CD3 conc. 1 μg/ml
  MTS absorbance at 490 nm: 1.459
